Measured values from US20210002330A1 (ASOCIACI N CENTRO DE INVESTIGACI N COOPERATIVA EN …, published 2021).

Legend:
[1] = target: T1, fluorescein-labeled Hsp90 peptide (fluorescein label (position not given)); experiment: fluorescence anisotropy; protein titrated into 50 nM fluorescein-labeled Hsp90 peptide
T1 construct: also called target peptide; C-terminal peptide of Hsp90
T1 peptide: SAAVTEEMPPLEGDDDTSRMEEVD
Description: (§1) In addition, the ligand binding activity of the tested proteins was studied by using CC1-CTPR390, CC1-TPR2A, CC1-TPR2A_T332R_D334K proteins and its target peptide. […] Fluorescence intensities were recorded in a Perkin Elmer Fluorimeter equipped with excitation and emission polarizers. Excitation was accomplished with a 5 nm slit width at 492 nm and the emission recorded at 516 nm with slit width of 5 nm. […]

[2] = target: T1, fluorescein-labeled Hsp90 peptide; experiment: fluorescence anisotropy with fluorescein-labeled Hsp90 peptide; protein-stabilised gold nanocluster complex
Description: as §1
Finally, fluorescence anisotropy was used to monitor the interaction between the CC1-CTPR390-AuNCs, CC1-TPR2A-AuNCs and CC1-TPR2A_T332R_D334K-AuNCs complexes and a fluorescein-labeled Hsp90 peptide to determine the corresponding Kd value.

Binder | Kd [1] [µM] | Kd [2] [µM]
CC1-CTPR390 (designed binder, CC1 Cys-clamp module (modules C and C1 fused) joined to the Hsp90 recognition domain CTPR390; Expressed in E. coli and the His tag was cleaved with TEV) AEAWCNLGCAYYKQGDYDEAIEYYQKALELDPRSACAWYCLGNAYYKQGDYDEAIEYYQKALELDPRSAEAWKNLGNAYYKQGDYQKAIEYYQKALELDPNNASAWYNLGNAYYKQGDYQKAIEYYQKALELDPNNAKAWYRRGNAYYKQGDYQKAIEDYQKALELDPNNAKAKQNLGNAKQKQG | 110 | 
CC1-CTPR390-AuNCs (designed binder, gold nanocluster (AuNC) stabilised on the protein (CC1 4-Cys clamp), also called CC1-CTPR390-AuNCs complex) AEAWCNLGCAYYKQGDYDEAIEYYQKALELDPRSACAWYCLGNAYYKQGDYDEAIEYYQKALELDPRSAEAWKNLGNAYYKQGDYQKAIEYYQKALELDPNNASAWYNLGNAYYKQGDYQKAIEYYQKALELDPNNAKAWYRRGNAYYKQGDYQKAIEDYQKALELDPNNAKAKQNLGNAKQKQG |  | ~110
